Reference: patent publication US20170247448A1 (INTRINSIC LIFESCIENCES, published 2017)
Changes are numbered by the printed parent chain. Values belong to the binder of their own block, whether it stands above or below them.

Experiments:
[1] = target: T1, Human hepcidin peptide (hepcidin-25) (human); assay: titration affinity ELISA, hepcidin 100 ng/well on Nunc Immobilizer Amino plate, CHO supernatant; antibody 3.13 ng/ml
T1 construct: Synthetic 25 aa peptide; also called hep-25; Hep-25
T1 peptide: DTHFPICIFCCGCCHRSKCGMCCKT
Protocol: (§1) FIGS. 17A-C. Titration affinity ELISA of humanized hits. FIG. 17A: Assay layout. CHO cells were seeded in 6 well plates, transfected with BAP070-01 (recombinant chimera), BAP070-01 humanized hits or vector only using BioAtla's transfection protocol and cultured at 37° C. in DMEM with 10% serum. Supernatants were collected at 48 hours post-transfection. Concentration of IgG in the supernatant was determined using BioAtla's quantitation ELISA. […] Vector only supernatant (column 7) was used as negative control. Bound antibodies were detected with anti-human IgG conjugated with HRP (1:2500). The reactions were stopped with 1 N HCl at 1.5 minutes after TMB was added to the wells and read immediately. OD 450 nm value of the reactions was measure with Molecular Device SPECTRAMAX® Plus. FIG. 17B: OD 450 nm value of the reactions measured with Molecular Device SPECTRAMAX® Plus. FIG. 17C: SOFTMAX® graph of […] data (Brown triangle: BAP070-01 recombinant chimeric antibody). X axis: Antibody concentration in ng/ml. Y axis: OD 450 nm values

[2] = target: T1, Human hepcidin peptide (hepcidin-25); assay: titration affinity ELISA, hepcidin 100 ng/well on Nunc Immobilizer Amino plate, CHO supernatant; antibody 100 ng/ml
Protocol: as §1

[3] = target: T1, Human hepcidin peptide (hepcidin-25); assay: titration affinity ELISA, hepcidin 100 ng/well on Nunc Immobilizer Amino plate, CHO supernatant; antibody 1.56 ng/ml
Protocol: as §1

[4] = target: T1, Human hepcidin peptide (hepcidin-25); assay: titration affinity ELISA, hepcidin 100 ng/well on Nunc Immobilizer Amino plate; antibody 0 ng/ml (blank)
Protocol: as §1

[5] = target: T1, Human hepcidin peptide (hepcidin-25); assay: titration affinity ELISA, hepcidin 100 ng/well on Nunc Immobilizer Amino plate, CHO supernatant; antibody 50 ng/ml
Protocol: as §1

[6] = target: T1, Human hepcidin peptide (hepcidin-25); assay: titration affinity ELISA, hepcidin 100 ng/well on Nunc Immobilizer Amino plate, CHO supernatant; antibody 25 ng/ml
Protocol: as §1

[7] = target: T1, Human hepcidin peptide (hepcidin-25); assay: titration affinity ELISA, hepcidin 100 ng/well on Nunc Immobilizer Amino plate, CHO supernatant; antibody 6.25 ng/ml
Protocol: as §1

[8] = target: T1, Human hepcidin peptide (hepcidin-25); assay: titration affinity ELISA, hepcidin 100 ng/well on Nunc Immobilizer Amino plate, CHO supernatant; antibody 12.5 ng/ml
Protocol: as §1

B1: BAP070-01 (human-mouse chimeric MAb 583) (antibody, human IgG1, kappa, V domains shown)
VH: QIQLVQSGPELKKPGETVKISCKASGYTFTNYGMNWVKQAPGKGLKWMGWINTYTGEPTYADDFKGRFAFSLETSASTAYLQINNLKNEDTATYFCTTYATSWYWGQGTLVTVSS
VL: DIVLTQSPASLAVSLGQRATISCRASESVDSYGNSFMHWYQQKPGQPPKLLIYRASNLESGIPARFSGSGSRTDFTLTINPVEADDVATYYCQQSNEDLTFGQGTKVEIKR
notes: used as CHO cell supernatant; also called BAP070-1
OD 450 nm [1]: 0.793 OD450 | OD 450 nm [2]: 3.33 OD450 | OD 450 nm [3]: 0.492 OD450 | OD 450 nm [4]: 0.05 OD450 | OD 450 nm [5]: 3 OD450 | OD 450 nm [6]: 2.57 OD450 | OD 450 nm [7]: 1.32 OD450 | OD 450 nm [8]: 1.8 OD450

B2: BAP070-hum01 (antibody, IgG1, V domains shown)
VH: QVQLVQSGAEVKKPGASVKVSCKASGYTFTNYGMNWVRQARGQRLEWIGWINTYTGEPTYADDFKGRLTISKDTSKNQVVLTMTNMDPVDTATYYCTTYATSWYWGQG
VL: DIQMTQSPSSLSASVGDRVTITCRASESVDSYGNSFMHWYQQKPGQAPRLLIYRASNLESGVPSRFSGSGSGTDFTFTISSLQPEDIATYYCQQSNEDLTFG
notes: Expressed as soluble IgG1 in CHO cells, tested as supernatant; The entries stop inside FR4 (...WGQG / ...FG); also called humanized hit 1
OD 450 nm [1]: 1.29 OD450 | OD 450 nm [2]: 3.3 OD450 | OD 450 nm [3]: 0.827 OD450 | OD 450 nm [4]: 0.05 OD450 | OD 450 nm [5]: 3.02 OD450 | OD 450 nm [6]: 2.83 OD450 | OD 450 nm [7]: 2.05 OD450 | OD 450 nm [8]: 2.26 OD450

B3: BAP070-hum05 (antibody, IgG1, V domains shown)
VH: EVQLVQSGAEVKKPGESLRISCKGSGYTFTNYGMNWIRQPPGKGLEWIGWINTYTGEPTYADDFKGRVTISADKSISTAYLQWSSLKASDTAMYYCTTYATSWYWGQG
VL: B2 VL
notes: Expressed as soluble IgG1 in CHO cells, tested as supernatant; The entries stop inside FR4
OD 450 nm [1]: 0.949 OD450 | OD 450 nm [2]: 3.11 OD450 | OD 450 nm [3]: 0.59 OD450 | OD 450 nm [4]: 0.037 OD450 | OD 450 nm [5]: 2.85 OD450 | OD 450 nm [6]: 2.63 OD450 | OD 450 nm [7]: 1.48 OD450 | OD 450 nm [8]: 1.94 OD450

B4: BAP070-hum03 (antibody, IgG1, V domains shown)
VH: QVQLVQSGAEVKKPGASVKVSCKASGYTFTNYGMNWVRQATGQGLEWMGWINTYTGEPTYADDFKGRFVFSLDTSVSTAYLQICSLKAEDTAVYYCTTYATSWYWGQG
VL: B2 VL with D1A, M4L
notes: as for B3
OD 450 nm [1]: 0.925 OD450 | OD 450 nm [2]: 3.27 OD450 | OD 450 nm [3]: 0.564 OD450 | OD 450 nm [4]: 0.051 OD450 | OD 450 nm [5]: 2.93 OD450 | OD 450 nm [6]: 2.62 OD450 | OD 450 nm [7]: 1.6 OD450 | OD 450 nm [8]: 1.95 OD450

The next lines start with the values.

OD 450 nm [1]: 1.38 OD450 | OD 450 nm [2]: 3.35 OD450 | OD 450 nm [3]: 0.827 OD450 | OD 450 nm [4]: 0.045 OD450 | OD 450 nm [5]: 2.99 OD450 | OD 450 nm [6]: 2.81 OD450 | OD 450 nm [7]: 2 OD450 | OD 450 nm [8]: 2.33 OD450
B5: BAP070-hum04 (antibody, V domains shown)
VH: B2 VH
VL: AIQLTQSPSSLSASVGDRVTITCRASESVDSYGNSFMHWFQQRPGQSPRRLIYRASNLESGIPPRFSGSGYGTDFTLTINNIESEDAAYYFCQQSNEDLTFG
notes: as for B3

OD 450 nm [1]: 1.28 OD450 | OD 450 nm [2]: 3.31 OD450 | OD 450 nm [3]: 0.804 OD450 | OD 450 nm [4]: 0.048 OD450 | OD 450 nm [5]: 2.98 OD450 | OD 450 nm [6]: 2.77 OD450 | OD 450 nm [7]: 1.85 OD450 | OD 450 nm [8]: 2.32 OD450
B6: BAP070-hum02 (antibody, IgG1, V domains shown)
VH: B2 VH
VL: AIQLTQSPSSLSASVGDRVTITCRASESVDSYGNSFMHWYQQKPGKAPKLLIYRASNLESGIPARFSGSGSGTEFTLTISSLQSEDFAVYYCQQSNEDLTFG
notes: as for B3

OD 450 nm [1]: 1.15 OD450 | OD 450 nm [2]: 3.25 OD450 | OD 450 nm [3]: 0.75 OD450 | OD 450 nm [4]: 0.042 OD450 | OD 450 nm [5]: 3.06 OD450 | OD 450 nm [6]: 2.69 OD450 | OD 450 nm [7]: 1.68 OD450 | OD 450 nm [8]: 2.12 OD450
B7: BAP070-hum06 (antibody, IgG1, V domains shown)
VH: B3 VH
VL: B2 VL with D1A, M4L
notes: as for B3
